Results as given in PMC5080983 (Nature communications, 2015).
Where no end group is shown, it is not given here. [ ]: non-standard residue; d: D form. Arg(Me2a) = CN(C)C(=N)NCCC[C@H](N)C(=O)O; Arg(Me2s) = CN=C(NC)NCCC[C@H](N)C(=O)O; fluorescent label = not defined here

Assays:
Assay in all cases: fluorescence polarisation
[1] = molecular target: T1, histone H3 tail peptide (1–18) asymmetrically dimethylated at Arg2 (H3R2me2a) (UniProt P68431 2-19)
T1 peptide (looked up): A[Arg(Me2a)]TKQTARKSTGGKAPRK

[2] = molecular target: T2, histone H3 tail peptide (1–18) symmetrically dimethylated at Arg2 (H3R2me2s) (UniProt P68431 2-19)
T2 peptide (looked up): A[Arg(Me2s)]TKQTARKSTGGKAPRK

GST-PHD1 W335A of KDM5A = molecular target: T3, GST-PHD1 W335A of KDM5A (UniProt P29375 291-347, W335A)
T3 sequence (looked up): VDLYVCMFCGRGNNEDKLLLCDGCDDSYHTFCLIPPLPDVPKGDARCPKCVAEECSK

B1: GST-PHD1_(291–347) of KDM5A (domain or fragment, UniProt P29375 291-347, looked up)
chain: VDLYVCMFCGRGNNEDKLLLCDGCDDSYHTFCLIPPLPDVPKGDWRCPKCVAEECSK
fold reduction of binding affinity against unmodified H3 [1]: ~5 fold
fold reduction of binding affinity against unmodified H3 [2]: ~5 fold

ARTKQTARKSTGGKAPRK-{fluorescent label} (peptide, UniProt P68431 2-19, looked up, reading uncertain) [histone H3 tail peptide H3_(1–18), unmethylated Lys4 (H3K4me0)]
Kd (GST-PHD1 W335A of KDM5A): > 100 µM
